Data taken from patent US11491212.

Tests used:
[1] = biological target: Factor X (FX), P00742
[2] = biological target: Factor X (FX), active site titrated and DFP/EGR-cmk treated zymogen, P00742
[3] = biological target: Factor X, P00742
[4] = biological target: plasma purified human AT-III (antithrombin III), in complex with low molecular weight heparin
[5] = biological target: Factor VIIIa (FVIIIa), P00451
Factor VIIIa (FVIIIa), P00451, sequence (P00451 other isoform, or with tags, fused parts or gaps): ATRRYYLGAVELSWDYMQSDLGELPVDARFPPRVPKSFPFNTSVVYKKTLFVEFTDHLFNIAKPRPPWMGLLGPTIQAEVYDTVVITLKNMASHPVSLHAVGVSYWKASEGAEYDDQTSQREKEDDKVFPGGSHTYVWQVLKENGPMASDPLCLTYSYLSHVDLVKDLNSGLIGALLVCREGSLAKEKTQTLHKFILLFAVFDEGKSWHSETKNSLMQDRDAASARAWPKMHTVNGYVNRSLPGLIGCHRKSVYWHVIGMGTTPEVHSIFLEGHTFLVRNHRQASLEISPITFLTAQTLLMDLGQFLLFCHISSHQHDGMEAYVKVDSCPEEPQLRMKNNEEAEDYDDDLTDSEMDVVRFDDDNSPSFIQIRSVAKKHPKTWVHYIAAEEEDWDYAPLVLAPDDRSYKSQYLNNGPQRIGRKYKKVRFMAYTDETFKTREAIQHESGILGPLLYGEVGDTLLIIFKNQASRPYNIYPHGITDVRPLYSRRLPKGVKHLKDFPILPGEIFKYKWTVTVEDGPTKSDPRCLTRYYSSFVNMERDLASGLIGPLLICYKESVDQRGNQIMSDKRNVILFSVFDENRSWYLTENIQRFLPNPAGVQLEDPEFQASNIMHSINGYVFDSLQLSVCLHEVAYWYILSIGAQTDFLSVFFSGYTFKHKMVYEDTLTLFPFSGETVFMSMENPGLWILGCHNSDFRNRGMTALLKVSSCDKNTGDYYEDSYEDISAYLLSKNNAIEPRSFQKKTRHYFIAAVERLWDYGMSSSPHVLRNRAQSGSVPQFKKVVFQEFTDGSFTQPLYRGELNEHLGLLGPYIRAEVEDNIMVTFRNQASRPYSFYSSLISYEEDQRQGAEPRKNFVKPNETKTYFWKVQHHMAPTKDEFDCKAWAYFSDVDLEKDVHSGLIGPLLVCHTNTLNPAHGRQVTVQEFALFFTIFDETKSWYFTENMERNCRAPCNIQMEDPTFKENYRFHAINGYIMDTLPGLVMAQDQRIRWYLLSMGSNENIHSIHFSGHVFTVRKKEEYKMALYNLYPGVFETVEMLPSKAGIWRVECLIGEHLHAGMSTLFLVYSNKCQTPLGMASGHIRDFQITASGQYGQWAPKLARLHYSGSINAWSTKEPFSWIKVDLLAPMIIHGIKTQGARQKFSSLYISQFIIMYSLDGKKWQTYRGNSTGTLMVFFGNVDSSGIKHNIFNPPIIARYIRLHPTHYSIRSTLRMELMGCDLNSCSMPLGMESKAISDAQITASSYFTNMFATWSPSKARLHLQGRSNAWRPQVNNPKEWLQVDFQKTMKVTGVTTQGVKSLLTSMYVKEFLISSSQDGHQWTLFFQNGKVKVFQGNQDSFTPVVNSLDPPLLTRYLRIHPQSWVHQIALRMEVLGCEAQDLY

Factor X (FX), P00742, sequence (P00742 whole entry, looked up): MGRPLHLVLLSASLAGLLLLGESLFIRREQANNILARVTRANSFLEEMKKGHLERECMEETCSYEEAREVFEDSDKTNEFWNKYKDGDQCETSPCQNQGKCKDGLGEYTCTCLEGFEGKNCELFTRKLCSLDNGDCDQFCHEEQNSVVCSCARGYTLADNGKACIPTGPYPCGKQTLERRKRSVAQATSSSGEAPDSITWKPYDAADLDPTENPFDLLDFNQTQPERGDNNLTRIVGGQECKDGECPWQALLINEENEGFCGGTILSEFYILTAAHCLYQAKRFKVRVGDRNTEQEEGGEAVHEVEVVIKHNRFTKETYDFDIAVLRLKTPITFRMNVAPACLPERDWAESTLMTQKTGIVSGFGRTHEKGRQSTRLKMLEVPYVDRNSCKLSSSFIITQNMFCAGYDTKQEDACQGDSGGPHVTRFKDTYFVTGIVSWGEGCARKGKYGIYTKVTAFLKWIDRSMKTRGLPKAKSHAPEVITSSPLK
Factor X, P00742, sequence (P00742 whole entry, looked up): as above
Factor X (FX), active site titrated and DFP/EGR-cmk treated zymogen, P00742, sequence (P00742 whole entry, looked up): as above

B1: FIXa-K247N/N249S/R338E/T343R/R403E (protein)
chain 1: not shown
chain 2: not shown
- kcat [1]: 14.6 s⁻¹
- catalytic activity (kcat/KM for activation of FX) [2]: improved activity when combined with other mutations
- KM [3]: 0.0263 µM

B2: FIXa-K293A/R338A/R403A (protein)
chain 1: not shown
chain 2: not shown
- KM [1]: 0.0654 µM
- KM of FX activation by FIXa in the Xase complex (FVIIIa, PC/PS vesicles, Ca2+); fluorogenic Spectrafluor FXa assay [3]: 0.0654 µM
- K0.5-mut/K0.5-wt (against Catalyst Biosciences WT FIXa), AT-III/LMWH [4]: 16.9 fold

B3: FIXa-Y155F/R318Y/R338E/T343R/R403E (protein)
chain 1: not shown
chain 2: not shown
- KM [1]: 0.034 µM
- kcat/KM [3]: 2.6e+08 M⁻¹ s⁻¹

B4: FIXa-R318Y/R338E/T343R/E410N (protein)
chain 1: not shown
chain 2: not shown
- KM [1]: 0.0164 µM
- catalytic activity (kcat/KM for activation of FX) [2]: displayed some of the greatest increases in catalytic activity
- kcat/KM [3]: 3.4e+08 M⁻¹ s⁻¹

B5: FIXa-Y155F/R318Y/R338E/T343R/E410N (protein)
chain 1: not shown
chain 2: not shown
- KM [1]: 0.0256 µM
- kcat/KM [3]: 3.7e+08 M⁻¹ s⁻¹

B6: FIXa-Y155F/R318Y/T343R/R403E/E410N (protein)
chain 1: not shown
chain 2: not shown
- KM [1]: 0.034 µM
- kcat/KM [3]: 2.6e+08 M⁻¹ s⁻¹

B7: FIXa-R338E/T343R/R403E/E410N (protein)
chain 1: not shown
chain 2: not shown
- KM [1]: 0.0347 µM
- kcat/KM [3]: 3e+08 M⁻¹ s⁻¹

B8: FIXa-R318Y/R338E/T343R (activated CB 2679d, FIX of SEQ ID NO:394) (protein)
chain 1: not shown
chain 2: not shown
- catalytic efficiency for the activation of FX [2]: approximately 3-fold enhanced catalytic efficiency for the activation of FX

B9: FIXa-R318Y/R338E/E410N (protein)
chain 1: not shown
chain 2: not shown
- catalytic activity (kcat/KM for activation of FX) [2]: displayed some of the greatest increases in catalytic activity

B10: FIXa-K228N/K247N/N249S (protein)
chain 1: not shown
chain 2: not shown
- % of WT kcat/KM (against Catalyst Biosciences WT FIXa) [1]: 83%
- kcat/KM for activation of FX by FIXa in the Xase complex (FVIIIa, PC/PS vesicles, Ca2+), fluorogenic Spectrafluor FXa read-out [1]: 3.8e+07 M⁻¹ s⁻¹
- catalytic activity (kcat/KM for activation of FX) [2]: demonstrated close to wild-type activity

B11: FIXa-K247N/N249S/R318Y/R338E/T343R/R403E/E410N (protein)
chain 1: not shown
chain 2: not shown
- catalytic activity (kcat/KM for activation of FX) [2]: improved activity when combined with other mutations
- kcat/KM [3]: 3.8e+08 M⁻¹ s⁻¹

B12: FIX of SEQ ID NO:394, with the replacements R318Y/R338E/T343R (activated form, FIXa) (protein)
chain 1: not shown
chain 2: not shown
- FIX activity (mean) at 5 ng/mL FVIIIa, Test 1 [5]: 278
- FIX activity (mean) at 10 ng/mL FVIIIa, Test 2 [5]: 479
- FIX activity (mean) at 15 ng/mL FVIIIa, Test 3 [5]: 622
- Fold increase after FVIIIa addition (5 ng/mL), Test 1 [5]: 225 fold
- Fold increase after FVIIIa addition (10 ng/mL), Test 2 [5]: 384 fold
- Fold increase after FVIIIa addition (15 ng/mL), Test 3 [5]: 486 fold
- Ratio (CB2679d vs BeneFIX) of FIX activity at 5 ng/mL FVIIIa [5]: 2
- Ratio (CB2679d vs BeneFIX) of FIX activity at 10 ng/mL FVIIIa [5]: 2
- Ratio (CB2679d vs BeneFIX) of FIX activity at 15 ng/mL FVIIIa [5]: 2
- Cofactor-Dependent Indirect kcat/KM (M-1s-1), FX activation [1]: 1.2e+08 M⁻¹ s⁻¹
- Fold Increase over BeneFIX FIX (kcat/KM, FX activation) [1]: 2.8 fold
- Pro-coagulant Activity, Fold Change (in vitro) [1]: 2.8 fold
